Test [1] has as its target Mouse IgG2b (wild-type) (mouse). In words: ITC. Background: In ITC the heat of successive injections is recorded.
In test [2] the target is His-tagged mouse FcRn (mouse) (UniProt Q61559). In words: BLI. A general note: BLI is a label-free optical method that tracks binding on a fibre tip over time.
Sequence of UniProt Q61559 (Q61559 22-297, chain 1 of 2): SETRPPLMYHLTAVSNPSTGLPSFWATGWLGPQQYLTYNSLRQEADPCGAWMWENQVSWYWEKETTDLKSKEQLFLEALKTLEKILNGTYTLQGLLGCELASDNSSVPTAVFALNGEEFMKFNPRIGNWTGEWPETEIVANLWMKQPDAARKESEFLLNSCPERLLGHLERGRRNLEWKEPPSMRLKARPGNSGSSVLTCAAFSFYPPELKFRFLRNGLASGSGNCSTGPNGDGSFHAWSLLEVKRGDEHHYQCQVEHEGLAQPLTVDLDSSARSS
Sequence of UniProt Q61559 (P01887 21-119, chain 2 of 2, further chain): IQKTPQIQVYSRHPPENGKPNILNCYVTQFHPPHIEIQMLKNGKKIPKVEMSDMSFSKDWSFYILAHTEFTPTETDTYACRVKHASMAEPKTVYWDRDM

By Kd is commonly meant the free concentration of one partner at which half of the binding sites on the other are occupied at equilibrium, for simple one-to-one binding. Low values mean higher affinity, high ones lower affinity. For the substance Z34C peptide, the dissociation constant Kd in test [1] is 2.6 µM.

For Mouse IgG2a P307T, Q309L (antibody), the fold change of relative kon against wild-type IgG2a in test [2] was determined as 2.7 fold.

The record behind these values is publication PMC5680793.
